In patent publication US20180037644A1 (Pfizer, published 2018):
Like-named read-outs stand apart in the source and are kept apart here. Blank lines part the entries; values can stand above or below the binder they belong to.

What was measured:
human IL-33 (mm2) [1] = biological target: T1, human IL-33 (mm2) (human, UniProt O95760 112-270); assay: cell-based or functional assay
T1 chain: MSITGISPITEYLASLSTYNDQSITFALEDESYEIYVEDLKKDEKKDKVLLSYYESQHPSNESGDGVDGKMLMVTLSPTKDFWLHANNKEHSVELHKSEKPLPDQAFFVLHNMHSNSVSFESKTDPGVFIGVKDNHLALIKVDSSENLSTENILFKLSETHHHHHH

human IL-33 (mm2) [2] = biological target: T1, human IL-33 (mm2); assay: BIAcore, IgG captured by anti-human Fc, 125 nM IL-33 (mm2)
Method: Binding to human and cynomolgus monkey IL-33 was measured by surface plasmon resonance using a BIAcore T200 instrument. An anti-human Fc antibody was immobilized on a CM5 chip, and anti-IL-33 antibodies were captured.

human IL-33 (mm2) [3] = biological target: T1, human IL-33 (mm2); assay: cell-based or functional assay
human IL-33 (mm2) [4] = biological target: T1, human IL-33 (mm2); assay: cell-based or functional assay
human IL-33 (mm2) [5] = biological target: T1, human IL-33 (mm2); assay: cell-based or functional assay

B1: 9B3 chimera/hu J (antibody, human IgG1, kappa)
heavy: EVQLVETGGGLVQPGRSLKLSCVASGFTFSNYWMYWIRQAPGMGLEWVSSINNDGGNTYYLDSVKGRFTISRNNAENTVYLQMNSLRSEDTATYYCAKGHYSYSSYSFSYWGQGTLVTVSSASTKGPSVFPLAPSSKSTSGGTAALGCLVKDYFPEPVTVSWNSGALTSGVHTFPAVLQSSGLYSLSSVVTVPSSSLGTQTYICNVNHKPSNTKVDKKVEPKSCDKTHTCPPCPAPEAAGAPSVFLFPPKPKDTLMISRTPEVTCVVVDVSHEDPEVKFNWYVDGVEVHNAKTKPREEQYNSTYRVVSVLTVLHQDWLNGKEYKCKVSNKALPAPIEKTISKAKGQPREPQVYTLPPSREEMTKNQVSLTCLVKGFYPSDIAVEWESNGQPENNYKTTPPVLDSDGSFFLYSKLTVDKSRWQQGNVFSCSVMHEALHNHYTQKSLSLSPGK
light: DIQMTQSPSVLSASVGDRVTLSCKASHNINKHLDWCQQKVGEAPKLLIYFTNNLQTGIPSRFSGSGSGTDYTLTISSLQPEDVATYFCFQYNSGWTFGQGTKVEIKRTVAAPSVFIFPPSDEQLKSGTASVVCLLNNFYPREAKVQWKVDNALQSGNSQESVTEQDSKDSTYSLSSTLTLSKADYEKHKVYACEVTHQGLSSPVTKSFNRGEC
notes: also called 9B3 chimera huJseg
IC50, HEK293 ST2 NFkB (human IL-33 (mm2) [1]): 0.056 nM
koff (human IL-33 (mm2) [2]): 0.000451 s⁻¹
estimated IC50, HEK293 ST2 NFkB (human IL-33 (mm2) [3]): 0.061 nM
IC50, HEK293 ST2 NFkB (human IL-33 (mm2) [4]): 0.264 nM

B2: 9B3-162 (antibody, human IgG1, kappa, V domains shown)
VH: EVQLVETGGGLVQPGRSLKLSCVASGFTFSNYWMYWIRQAPGMGLEWVSSINNDGGNTYYLDSVKGRFTISRNNAENTVYLQMNSLRSEDTATYYCAKGHYYYSSYSFGYWGQGTLVTVSS
VL: DIQMTQSPSVLSASVGDRVTLSCKASHNINKHLDWYQQKVGEAPKLLIYFTNNLQTGIPSRFSGSGSGTDYTLTISSLQPEDVATYFCFQYNSGWTFGQGTKVEIKR
koff (human IL-33 (mm2) [2]): 0.000642 s⁻¹
estimated IC50, HEK293 ST2 NFkB (human IL-33 (mm2) [3]): 0.067 nM

B3: IL33-57 (antibody, human IgG1, kappa, V domains shown)
VH: EVQLVESGGGLVQPGGSLRLSCAASGFTFSSYWMYWVRQAPGKGLEWVASITPNGGNTYYPDSVKGRFTISRDNAKNSLYLQMNSLRAEDTAVYYCARGHYYYTDYSLGYWGQGTLVTVSS
VL: DIQMTQSPSSLSASVGDRVTITCKASQNINKHLDWYQQKPGKAPKLLIYFTNNLQTGVPSRFSGSGSGTDFTLTISSLQPEDFATYYCFQYNNGWTFGGGTKVEIKR
IC50, HEK293 ST2 NFkB (human IL-33 (mm2) [5]): 0.31 nM

B11: 30A1 chimera (antibody, human IgG1, kappa)
heavy: QVNLLQSGATLVKPGASMKMSCKASGYSFTDYWVSWVKQSHGKSLEWIGEIYPNSGANNFNKEFKDKATLTVDKSTSTAYMELTRLTSEDSAVYYCTRGPYYYSSQIIFAYWGQGTLVTVSSASTKGPSVFPLAPSSKSTSGGTAALGCLVKDYFPEPVTVSWNSGALTSGVHTFPAVLQSSGLYSLSSVVTVPSSSLGTQTYICNVNHKPSNTKVDKKVEPKSCDKTHTCPPCPAPEAAGAPSVFLFPPKPKDTLMISRTPEVTCVVVDVSHEDPEVKFNWYVDGVEVHNAKTKPREEQYNSTYRVVSVLTVLHQDWLNGKEYKCKVSNKALPAPIEKTISKAKGQPREPQVYTLPPSREEMTKNQVSLTCLVKGFYPSDIAVEWESNGQPENNYKTTPPVLDSDGSFFLYSKLTVDKSRWQQGNVFSCSVMHEALHNHYTQKSLSLSPGK
light: IIVMTQSPKSMSISVGDRVTMNCKASQNVGNNIAWYRQKPGQSPELLIYYASNRYTGVPDRFTGGGYGTDFTLTINSVQAEDAAFYYCQRIYNSPPTFGGGTKVELKRTVAAPSVFIFPPSDEQLKSGTASVVCLLNNFYPREAKVQWKVDNALQSGNSQESVTEQDSKDSTYSLSSTLTLSKADYEKHKVYACEVTHQGLSSPVTKSFNRGEC
IC50, HEK293 ST2 NFkB (human IL-33 (mm2) [1]): 0.27 nM

B12: 7E8 chimera (antibody, human IgG1, kappa, V domains shown)
VH: EVQLVETGGGLVQPGRSLKLSCKTSGFTFSSYWMYWIRQAPGKGLEWVSSITPNGGNTYYPDSVKGRFTISRDNAENTIYLQMSSLRSEDTATYFCAKGHYYYTSYSLGYWGQGSLVTVSS
VL: EIQMTQSPSVLSASVGDRVTLSCKASQNINKHLDWYQQKLGEAPKLLIYFTNNLQTGIPSRFSGSGSGTDCTLTINSLQPGDVATYFCFQYNNGWTFGGGTKLELDR
IC50, HEK293 ST2 NFkB (human IL-33 (mm2) [1]): 0.049 nM

B13: 7E8H/9B3K (antibody, human IgG1, kappa, V domains shown)
VH: EVQLVETGGGLVQPGRSLKLSCKTSGFTFSSYWMYWIRQAPGKGLEWVSSITPNGGNTYYPDSVKGRFTISRDNAENTIYLQMSSLRSEDTATYFCAKGHYYYTSYSLGYWGQGSLVTVSS
VL: DIQMTQSPSVLSASVGDRVTLSCKASHNINKHLDWYQQKVGEAPKLLIYFTNNLQTGIPSRFSGSGSGTDYTLTISSLQPEDVATYFCFQYNSGWTFGQGTKVEIKR
koff (human IL-33 (mm2) [2]): 0.000385 s⁻¹
estimated IC50, HEK293 ST2 NFkB (human IL-33 (mm2) [3]): 0.015 nM

Now from value to binder:

IC50, HEK293 ST2 NFkB (human IL-33 (mm2) [5]): 0.161 nM
B4: IL33-80 (antibody, human IgG1, kappa, V domains shown)
VH: EVQLVESGGGLVQPGGSLRLSCAASGFTFSSYWMYWVRQAPGKGLEWVASITPNGGNTYYPDSVKGRFTISRDNAKNSLYLQMNSLRAEDTAVYYCARGHYYYTSYSLGYWGQGTLVTVSS
VL: DIQMTQSPSSLSASVGDRVTITCKASQNINKHLDWYQQKPGKAPKLLIYFTNNLQDGVPSRFSGSGSGTDFTLTISSLQPEDFATYYCFQYNNGWTFGGGTKVEIKR

IC50, HEK293 ST2 NFkB (human IL-33 (mm2) [5]): 0.595 nM
B5: IL33-61 (antibody, human IgG1, kappa, V domains shown)
VH: EVQLVESGGGLVQPGGSLRLSCAASGFTFSSYWMYWVRQAPGKGLEWVASITPNGGETYYPDSVKGRFTISRDNAKNSLYLQMNSLRAEDTAVYYCARGHYYYTDYSLGYWGQGTLVTVSS
VL: DIQMTQSPSSLSASVGDRVTITCKASQNINKHLDWYQQKPGKAPKLLIYFTNNLQTGVPSRFSGSGSGTDFTLTISSLQPEDFATYYCFQYNNGWTFGGGTKVEIKR

IC50, HEK293 ST2 NFkB (human IL-33 (mm2) [5]): 0.885 nM
B6: IL33-62 (antibody, human IgG1, kappa, V domains shown)
VH: EVQLVESGGGLVQPGGSLRLSCAASGFTFSSYWMYWVRQAPGKGLEWVASITPNGGDTYYPDSVKGRFTISRDNAKNSLYLQMNSLRAEDTAVYYCARGHYYYTDYSLGYWGQGTLVTVSS
VL: DIQMTQSPSSLSASVGDRVTITCKASQNINKHLDWYQQKPGKAPKLLIYFTNNLQTGVPSRFSGSGSGTDFTLTISSLQPEDFATYYCFQYNNGWTFGGGTKVEIKR

IC50, HEK293 ST2 NFkB (human IL-33 (mm2) [5]): 0.174 nM
B7: IL33-74 (antibody, human IgG1, kappa, V domains shown)
VH: EVQLVESGGGLVQPGGSLRLSCAASGFTFSSYWMYWVRQAPGKGLEWVASITPNGGNTYYPDSVKGRFTISRDNAKNSLYLQMNSLRAEDTAVYYCARGHYYYTSYSLGYWGQGTLVTVSS
VL: DIQMTQSPSSLSASVGDRVTITCKASQNINDHLDWYQQKPGKAPKLLIYFTNNLQTGVPSRFSGSGSGTDFTLTISSLQPEDFATYYCFQYNNGWTFGGGTKVEIKR

IC50, HEK293 ST2 NFkB (human IL-33 (mm2) [5]): 0.168 nM
B8: IL33-81 (antibody, human IgG1, kappa, V domains shown)
VH: EVQLVESGGGLVQPGGSLRLSCAASGFTFSSYWMYWVRQAPGKGLEWVASITPNGGNTYYPDSVKGRFTISRDNAKNSLYLQMNSLRAEDTAVYYCARGHYYYTSYSLGYWGQGTLVTVSS
VL: DIQMTQSPSSLSASVGDRVTITCKASQNINKHLDWYQQKPGKAPKLLIYFTNNLQEGVPSRFSGSGSGTDFTLTISSLQPEDFATYYCFQYNNGWTFGGGTKVEIKR

IC50, HEK293 ST2 NFkB (human IL-33 (mm2) [5]): 0.027 nM
B9: IL33-58 (antibody, human IgG1, kappa, V domains shown)
VH: EVQLVESGGGLVQPGGSLRLSCAASGFTFSSYWMYWVRQAPGKGLEWVASITPLGGNTYYPDSVKGRFTISRDNAKNSLYLQMNSLRAEDTAVYYCARGHYYYTSYSLGYWGQGTLVTVSS
VL: DIQMTQSPSSLSASVGDRVTITCKASQNINKHLDWYQQKPGKAPKLLIYFTNNLQTGVPSRFSGSGSGTDFTLTISSLQPEDFATYYCFQYNNGWTFGGGTKVEIKR

IC50, HEK293 ST2 NFkB (human IL-33 (mm2) [5]): 0.156 nM
B10: IL33-75 (antibody, human IgG1, kappa, V domains shown)
VH: EVQLVESGGGLVQPGGSLRLSCAASGFTFSSYWMYWVRQAPGKGLEWVASITPNGGNTYYPDSVKGRFTISRDNAKNSLYLQMNSLRAEDTAVYYCARGHYYYTSYSLGYWGQGTLVTVSS
VL: DIQMTQSPSSLSASVGDRVTITCKASQNIDKHLDWYQQKPGKAPKLLIYFTNNLQTGVPSRFSGSGSGTDFTLTISSLQPEDFATYYCFQYNNGWTFGGGTKVEIKR
